Literature values in PMC3749945.

Target: Cdc42 (Homo sapiens) (UniProt P60953)
Chain of UniProt P60953 (P60953 1-188): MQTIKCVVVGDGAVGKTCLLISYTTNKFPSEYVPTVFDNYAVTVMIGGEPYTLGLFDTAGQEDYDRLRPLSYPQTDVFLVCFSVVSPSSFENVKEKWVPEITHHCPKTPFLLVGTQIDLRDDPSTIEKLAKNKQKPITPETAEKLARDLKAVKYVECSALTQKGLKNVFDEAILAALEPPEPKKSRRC

Kd: 74 nM
Substance: WASP (from UniProt P42768)
